From publication PMC8189185 (Structure (London, England : 1993), 2017)

Target: the molecule itself
Assay: cryo-EM structure

B1: PilA, major pilin subunit of the Pseudomonas aeruginosa strain K (PaK) Type IV pilus (natural protein)
chain: FTLIELMIVVAIIGILAAIAIPQYQNYVARSEGASALASVNPLKTTVEEALSRGWSVKSGTGTEDATKKEVPLGVAADANKLGTIALKPDPADGTADITLTFTMGGAGPKNKGKIITLTRTAADGLWKCTSDQDEQFIPKGCSR
  binding result: binds
